# Experimental data from PMC5369529, “Substrate selectivity of an isolated enoyl reductase catalytic domain from an iterative highly reducing fungal polyketide synthase reveals key components of programming” (Chemical Science, 2016).
# T1: isolated enoyl reductase (ER) domain of squalestatin tetraketide synthase (SQTKS) (Phoma sp. C2932, UniProt Q86ZD9)
# T1 construct: gene pks1; isolated ER domain only, his6-tagged, from synthetic codon-optimised phpks1, expressed in E. coli; dimer; exact borders in ESI (model begins at G1886)
# T1 sequence (Q86ZD9 1887-2207 limits assumed): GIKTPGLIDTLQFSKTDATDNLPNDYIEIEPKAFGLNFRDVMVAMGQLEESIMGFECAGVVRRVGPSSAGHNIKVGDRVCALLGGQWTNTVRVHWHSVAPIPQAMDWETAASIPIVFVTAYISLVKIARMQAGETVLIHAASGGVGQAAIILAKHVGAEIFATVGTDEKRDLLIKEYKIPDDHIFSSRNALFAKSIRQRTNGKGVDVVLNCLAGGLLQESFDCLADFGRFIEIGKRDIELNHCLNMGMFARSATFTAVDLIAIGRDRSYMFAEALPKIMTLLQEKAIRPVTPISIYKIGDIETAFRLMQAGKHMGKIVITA
# What was measured:
# [1] = biological target: T1, isolated enoyl reductase (ER) domain of squalestatin tetraketide synthase (SQTKS); test: inhibition of turnover of tigloyl pantetheine 5P; format: biochemical; conditions: substrate 5P, NADPH; inhibitor, not reduced
# [2] = substrate: C/C=C(\CC)C(=O)SCCNC(=O)CCNC(=O)[C@H](O)C(C)(C)CO; test: purified protein, by the assay type; design: continuous spectrophotometric assay, NADPH consumption at 340 nm, initial rates fitted to Michaelis-Menten; conditions: 30.0 °C
# [3] = substrate: CC[C@H](C)/C=C(\C)C(=O)SCCNC(=O)CCNC(=O)[C@H](O)C(C)(C)CO; test: purified protein, by the assay type; design: continuous spectrophotometric assay, NADPH consumption at 340 nm, initial rates fitted to Michaelis-Menten; conditions: 30.0 °C
# [4] = substrate: CCCC/C=C/C(=O)SCCNC(=O)CCNC(=O)[C@H](O)C(C)(C)CO; test: purified protein, by the assay type; design: continuous spectrophotometric assay, NADPH consumption at 340 nm, initial rates fitted to Michaelis-Menten; conditions: 30.0 °C
# [5] = substrate: CCC/C=C(\C)C(=O)SCCNC(=O)CCNC(=O)[C@H](O)C(C)(C)CO; test: purified protein, by the assay type; design: continuous spectrophotometric assay, NADPH consumption at 340 nm, initial rates fitted to Michaelis-Menten; conditions: 30.0 °C
# [6] = substrate: CCCCC/C=C/C(=O)SCCNC(=O)CCNC(=O)[C@H](O)C(C)(C)CO; test: purified protein, by the assay type; design: continuous spectrophotometric assay, NADPH consumption at 340 nm, initial rates fitted to Michaelis-Menten; conditions: 30.0 °C
# [7] = substrate: CC(C)CC/C=C/C(=O)SCCNC(=O)CCNC(=O)[C@H](O)C(C)(C)CO; test: purified protein, by the assay type; design: continuous spectrophotometric assay, NADPH consumption at 340 nm, initial rates fitted to Michaelis-Menten; conditions: 30.0 °C
# [8] = substrate: C/C=C(\C)C(=O)SCCNC(=O)CCNC(=O)[C@H](O)C(C)(C)CO; test: purified protein, by the assay type; design: continuous spectrophotometric assay, NADPH consumption at 340 nm, initial rates fitted to Michaelis-Menten; conditions: 30.0 °C
# [9] = substrate: CCC(C)/C=C/C(=O)SCCNC(=O)CCNC(=O)[C@H](O)C(C)(C)CO; test: purified protein, by the assay type; design: continuous spectrophotometric assay, NADPH consumption at 340 nm, initial rates fitted to Michaelis-Menten; conditions: 30.0 °C
# [10] = substrate: CCC(C)CC(C)/C=C/C(=O)SCCNC(=O)CCNC(=O)[C@H](O)C(C)(C)CO; test: purified protein, by the assay type; design: continuous spectrophotometric assay, NADPH consumption at 340 nm, initial rates fitted to Michaelis-Menten; conditions: 30.0 °C
# [11] = substrate: CC(C)CCC/C=C/C(=O)SCCNC(=O)CCNC(=O)[C@H](O)C(C)(C)CO; test: purified protein, by the assay type; design: continuous spectrophotometric assay, NADPH consumption at 340 nm, initial rates fitted to Michaelis-Menten; conditions: 30.0 °C
# [12] = substrate: CCC/C=C(\CC)C(=O)SCCNC(=O)CCNC(=O)[C@H](O)C(C)(C)CO; test: purified protein, by the assay type; design: continuous spectrophotometric assay, NADPH consumption at 340 nm, initial rates fitted to Michaelis-Menten; conditions: 30.0 °C
# [13] = substrate: C/C=C(/C)C(=O)SCCNC(=O)CCNC(=O)[C@H](O)C(C)(C)CO; test: purified protein, by the assay type; design: continuous spectrophotometric assay, NADPH consumption at 340 nm, initial rates fitted to Michaelis-Menten; conditions: 30.0 °C
# [14] = substrate: CCC/C=C/C(=O)SCCNC(=O)CCNC(=O)[C@H](O)C(C)(C)CO; test: purified protein, by the assay type; design: continuous spectrophotometric assay, NADPH consumption at 340 nm, initial rates fitted to Michaelis-Menten; conditions: 30.0 °C
molecule,measurement,setting,value
"CC[C@H](C)C[C@H](C)/C=C/C(=O)SCCNC(=O)CCNC(=O)[C@H](O)C(C)(C)CO [1P, squalestatin tetraketide pantetheine]",inhibition of turnover of tigloyl pantetheine 5P,[1],it does act as an inhibitor of the ER in vitro
"isolated enoyl reductase (ER) domain of squalestatin tetraketide synthase (SQTKS) (Phoma sp. C2932) (protein, isolated ER domain only, his6-tagged, from synthetic codon-optimised phpks1, expressed in E. coli; dimer; exact borders in ESI (model begins at G1886)) GIKTPGLIDTLQFSKTDATDNLPNDYIEIEPKAFGLNFRDVMVAMGQLEESIMGFECAGVVRRVGPSSAGHNIKVGDRVCALLGGQWTNTVRVHWHSVAPIPQAMDWETAASIPIVFVTAYISLVKIARMQAGETVLIHAASGGVGQAAIILAKHVGAEIFATVGTDEKRDLLIKEYKIPDDHIFSSRNALFAKSIRQRTNGKGVDVVLNCLAGGLLQESFDCLADFGRFIEIGKRDIELNHCLNMGMFARSATFTAVDLIAIGRDRSYMFAEALPKIMTLLQEKAIRPVTPISIYKIGDIETAFRLMQAGKHMGKIVITA",Km,[2],0.16 µM
same,kcat,[2],2.58 s⁻¹
same,kcat/Km,[2],1.61e+07 M⁻¹ s⁻¹
same,Km,[3],0.41 µM
same,kcat,[3],48.8 s⁻¹
same,kcat/Km,[3],1.19e+08 M⁻¹ s⁻¹
same,Km,[4],0.18 µM
same,kcat,[4],7.11 s⁻¹
same,kcat/Km,[4],3.95e+07 M⁻¹ s⁻¹
same,Km,[5],0.54 µM
same,kcat,[5],415 s⁻¹
same,kcat/Km,[5],7.68e+08 M⁻¹ s⁻¹
same,Km,[6],0.6 µM
same,kcat,[6],9 s⁻¹
same,kcat/Km,[6],1.5e+07 M⁻¹ s⁻¹
same,Km,[7],0.52 µM
same,kcat,[7],5.6 s⁻¹
same,kcat/Km,[7],1.08e+07 M⁻¹ s⁻¹
same,Km,[8],0.69 µM
same,kcat,[8],8.9 s⁻¹
same,kcat/Km,[8],1.29e+07 M⁻¹ s⁻¹
same,Km,[9],0.18 µM
same,kcat,[9],5.9 s⁻¹
same,kcat/Km,[9],3.28e+07 M⁻¹ s⁻¹
same,Km,[10],0.18 µM
same,kcat,[10],2 s⁻¹
same,kcat/Km,[10],1.11e+07 M⁻¹ s⁻¹
same,Km,[11],4.70 µM
same,kcat,[11],0.85 s⁻¹
same,kcat/Km,[11],200000 M⁻¹ s⁻¹
same,Km,[12],0.19 µM
same,kcat,[12],4.71 s⁻¹
same,kcat/Km,[12],2.48e+07 M⁻¹ s⁻¹
same,Km,[13],0.44 µM
same,kcat,[13],11.4 s⁻¹
same,kcat/Km,[13],2.59e+07 M⁻¹ s⁻¹
same,Km,[14],0.23 µM
same,kcat,[14],25.9 s⁻¹
same,kcat/Km,[14],1.13e+08 M⁻¹ s⁻¹
